Experimental data: paper PMC4564947 (Nature structural & molecular biology, 2015)
Residue numbers refer to the chain shown, from its start. Names may count otherwise. “And” between values parts separate entries of the source, which are not always exact repeats. Equal values may be shown once.

B1: FLAG-tagged full-length wild-type CtIP purified from HEK-293T cells (natural protein)
chain: MNISGSSCGSPNSADTSSDFKDLWTKLKECHDREVQGLQVKVTKLKQERILDAQRLEEFFTKNQQLREQQKVLHETIKVLEDRLRAGLCDRCAVTEEHMRKKQQEFENIRQQNLKLITELMNERNTLQEENKKLSEQLQQKIENDQQHQAAELECEEDVIPDSPITAFSFSGVNRLRRKENPHVRYIEQTHTKLEHSVCANEMRKVSKSSTHPQHNPNENEILVADTYDQSQSPMAKAHGTSSYTPDKSSFNLATVVAETLGLGVQEESETQGPMSPLGDELYHCLEGNHKKQPFEESTRNTEDSLRFSDSTSKTPPQEELPTRVSSPVFGATSSIKSGLDLNTSLSPSLLQPGKKKHLKTLPFSNTCISRLEKTRSKSEDSALFTHHSLGSEVNKIIIQSSNKQILINKNISESLGEQNRTEYGKDSNTDKHLEPLKSLGGRTSKRKKTEEESEHEVSCPQASFDKENAFPFPMDNQFSMNGDCVMDKPLDLSDRFSAIQRQEKSQGSETSKNKFRQVTLYEALKTIPKGFSSSRKASDGNCTLPKDSPGEPCSQECIILQPLNKCSPDNKPSLQIKEENAVFKIPLRPRESLETENVLDDIKSAGSHEPIKIQTRSDHGGCELASVLQLNPCRTGKIKSLQNNQDVSFENIQWSIDPGADLSQYKMDVTVIDTKDGSQSKLGGETVDMDCTLVSETVLLKMKKQEQKGEKSSNEERKMNDSLEDMFDRTTHEEYESCLADSFSQAADEEEELSTATKKLHTHGDKQDKVKQKAFVEPYFKGDERETSLQNFPHIEVVRKKEERRKLLGHTCKECEIYYADMPAEEREKKLASCSRHRFRYIPPNTPENFWEVGFPSTQTCMERGYIKEDLDPCPRPKRRQPYNAIFSPKGKEQKT
B2: CtIP-cNTD, human CtIP residues 52-145 (domain or fragment)
chain: DAQRLEEFFTKNQQLREQQKVLHETIKVLEDRLRAGLCDRCAVTEEHMRKKQQEFENIRQQNLKLITELMNERNTLQEENKKLSEQLQQKIEND
B3: CtIP-cNTD-DM, C89A C92A double mutant of CtIP residues 52-145 (domain or fragment)
chain: B2 chain with C38A, C41A
B4: CtIP-nNTD, tetramerization domain of human CtIP, residues 18-52 (domain or fragment)
chain: SDFKDLWTKLKECHDREVQGLQVKVTKLKQERILD
B5: CtIP-nNTD (residues 18-52) fused to a maltose-binding protein (MBP) tag (domain or fragment)
chain: B4 chain
B6: CtIP N-terminal domain (CtIP-NTD), human CtIP residues 18-145 (domain or fragment)
chain: SDFKDLWTKLKECHDREVQGLQVKVTKLKQERILDAQRLEEFFTKNQQLREQQKVLHETIKVLEDRLRAGLCDRCAVTEEHMRKKQQEFENIRQQNLKLITELMNERNTLQEENKKLSEQLQQKIEND
B7: F20E CtIP-NTD, human CtIP residues 18-145 with F20E (domain or fragment)
chain: B6 chain with F3E
B8: L27E CtIP-NTD, human CtIP residues 18-145 with L27E (domain or fragment)
chain: B6 chain with L10E
B9: CtIP-NTD-DM, C89A C92A double mutant of CtIP residues 18-145 (domain or fragment)
chain: B6 chain with C72A, C75A
B10: Δ20-27 CtIP-NTD, human CtIP residues 18-145 with residues 20-27 deleted (domain or fragment)
chain: SDKECHDREVQGLQVKVTKLKQERILDAQRLEEFFTKNQQLREQQKVLHETIKVLEDRLRAGLCDRCAVTEEHMRKKQQEFENIRQQNLKLITELMNERNTLQEENKKLSEQLQQKIEND

Molecular target: the molecule itself
Assay: SEC

Question: Does B1 bind?
Answer: binds

Molecular target: the molecule itself
Assay: SEC-MALS

Question: For B2, which “stoichiometry N” value is on record?
Answer: 2

Question: Which “stoichiometry N” value does the source give for B3 here?
Answer: 2

Question: B4 was tested. Which “stoichiometry N” value did it give?
Answer: 4

Question: How did the “stoichiometry N” value turn out when B5 was run?
Answer: 4

Question: How did the “stoichiometry N” value turn out when B6 was run?
Answer: 4

Question: How did the “stoichiometry N” value turn out when B7 was run?
Answer: 2 and 4

Question: For B8, which “stoichiometry N” value is on record?
Answer: 2

Question: How did the “stoichiometry N” value turn out when B9 was run?
Answer: 4

Question: With B10 as the protein, how does the “stoichiometry N” value read?
Answer: 2
